Data from patent US6429304B1, “Nucleic acids encoding a katanin p60 subunit” (The Regents of the University of California, priority 1998, dated 2002).

B1: p60/p80: co-expressed recombinant katanin p60/p80 heterodimer complex from baculovirus-infected insect cells (protein)
chain 1: HHHHHHMSVDEICENTKMGREYALLGNYETSLVYYQGVLQQIQKLLTSVHEPQRKHQWQTIRQELSQEYEHVKNITKTLNGFKSEPAAPEPAPNHRAAPFSHHQHAAKPAAAEPARDPDVWPPPTPVDHRPSPPYQRAARKDPPRRSEPSKPANRAPGNDRGGRGPSDRRGDARSGGGGRGGARGSDKDKNRGGKSDKDKKAPSGEEGDEKKFDPAGYDKDLVENLERDIVQRNPNVHWADIAGLTEAKRLLEEAVVLPLWMPDYFKGIRRPWKGVLMVGPPGTGKTMLAKAVATECGTTFFNVSSASLTSKYHGESEKLVRLLFEMARFYAPSTIFIDEIDSICSKRGTGSEHEASRRVKSELLIQMDGVSGPSAGEESSKMVMVLAATNFPWDIDEALRRRLEKRIYIPLPEIDGREQLLRINLKEVPLADDIDLKSIAEKMDGYSGADITNVCRDASMMAMRRRIQGLRPEEIRHIPKEELNQPSTPADFLLALQKVSKSVGKEDLVKYMAWMEEFGSV
chain 2: HHHHHHMATKRAWKLQELVAHSSNVNCLALGPMSGRVMVTGGEDKKVNLWAVGKQNCIISLSGHTSPVDSVKFNSSEELVVAGSQSGTMKIYDLEPAKIVRTLTGHRNSIRCMDFHPFGEFVASGSTDTNVKLWDVRRKGCIYTYKGHSDQVNMIKFSPDGKWLVTASEDTTIKLWDLTMGKLFQEFKNHTGGVTGIEFHPNEFLLASGSSDRTVQFWDLETFQLVSSTSPGASAVRSISFHPDGSYLFCSSQDMLHAFGWEPIRCFDTFSVGWGKVADTVIASTQLIGASFNATNVSVYVADLSRMSTTGIAQEPQSQPSKTPSGGAEEVPSKPLTASGRKNFVRERPHTTSSKQRQPDVKSEPERQSPTQDEGVKDDDATDIKDPDSYAKIFSPKTRVDHSPERNAQPFPAPLDVPGAQEPEPFKHPPKPAAAAAVAPVSRAPAPSASDWQPAQANPAPNRVPAATKPVPAQEVAPSRKPDPISTIIPSDRNKPANLDMDAFLPPAHAQQAPRVNAPASRKQSDSERIEGLRKGHDSMCQVLSSRHRNLDVVRAIWTAGDAKTSVESVVNMKDQAILVDILNIMLLKKSLWNLDMCVVVLPRLKELLSSKYENYVHTSCACLKLILKNFTSLFNQNIKCPPSGIDITREERYNKCSKCYSYLIATRGYVEEKQHVSGKLGSSFRELHLLLDQLE
B2: p60: S. purpuratus katanin p60 subunit, 516 a.a. AAA ATPase (SEQ ID NO:1), baculovirus-expressed with N-terminal His(6) tag (protein, listed as Strongylocentrotus purpuratus)
chain: MSVDEICENTKMGREYALLGNYETSLVYYQGVLQQIQKLLTSVHEPQRKHQWQTIRQELSQEYEHVKNITKTLNGFKSEPAAPEPAPNHRAAPFSHHQHAAKPAAAEPARDPDVWPPPTPVDHRPSPPYQRAARKDPPRRSEPSKPANRAPGNDRGGRGPSDRRGDARSGGGGRGGARGSDKDKNRGGKSDKDKKAPSGEEGDEKKFDPAGYDKDLVENLERDIVQRNPNVHWADIAGLTEAKRLLEEAVVLPLWMPDYFKGIRRPWKGVLMVGPPGTGKTMLAKAVATECGTTFFNVSSASLTSKYHGESEKLVRLLFEMARFYAPSTIFIDEIDSICSKRGTGSEHEASRRVKSELLIQMDGVSGPSAGEESSKMVMVLAATNFPWDIDEALRRRLEKRIYIPLPEIDGREQLLRINLKEVPLADDIDLKSIAEKMDGYSGADITNVCRDASMMAMRRRIQGLRPEEIRHIPKEELNQPSTPADFLLALQKVSKSVGKEDLVKYMAWMEEFGSV
modifications: N-terminal His6 tag; katanin p60 subunit
B3: p80: S. purpuratus katanin p80 subunit, 690 a.a. with six WD40 repeats (SEQ ID NO:2), baculovirus-expressed, His-tagged (protein, listed as Strongylocentrotus purpuratus)
chain: MATKRAWKLQELVAHSSNVNCLALGPMSGRVMVTGGEDKKVNLWAVGKQNCIISLSGHTSPVDSVKFNSSEELVVAGSQSGTMKIYDLEPAKIVRTLTGHRNSIRCMDFHPFGEFVASGSTDTNVKLWDVRRKGCIYTYKGHSDQVNMIKFSPDGKWLVTASEDTTIKLWDLTMGKLFQEFKNHTGGVTGIEFHPNEFLLASGSSDRTVQFWDLETFQLVSSTSPGASAVRSISFHPDGSYLFCSSQDMLHAFGWEPIRCFDTFSVGWGKVADTVIASTQLIGASFNATNVSVYVADLSRMSTTGIAQEPQSQPSKTPSGGAEEVPSKPLTASGRKNFVRERPHTTSSKQRQPDVKSEPERQSPTQDEGVKDDDATDIKDPDSYAKIFSPKTRVDHSPERNAQPFPAPLDVPGAQEPEPFKHPPKPAAAAAVAPVSRAPAPSASDWQPAQANPAPNRVPAATKPVPAQEVAPSRKPDPISTIIPSDRNKPANLDMDAFLPPAHAQQAPRVNAPASRKQSDSERIEGLRKGHDSMCQVLSSRHRNLDVVRAIWTAGDAKTSVESVVNMKDQAILVDILNIMLLKKSLWNLDMCVVVLPRLKELLSSKYENYVHTSCACLKLILKNFTSLFNQNIKCPPSGIDITREERYNKCSKCYSYLIATRGYVEEKQHVSGKLGSSFRELHLLLDQLE
modifications: His tag; katanin p80 subunit
B4: Katanin: heterodimer of 60 kDa and 80 kDa subunits, microtubule-severing ATPase from sea urchin eggs (protein)
chain 1: B1 chain 1
chain 2: B1 chain 2

Experiments:
[1] = tested on: Taxol-stabilized, rhodamine-labeled microtubules; assay: Microscope-based microtubule severing assay; format: biochemical; settings: for time until microtubules were completely disassembled: 0.1 μM protein, 1 mM ATP; for microtubule severing (in words): p60, p60/p80 0.1 μM, p80 0.5 μM (5-fold higher)
Procedure: FIGS. 5A, 5B, and 5C illustrate the activities of recombinant katanin subunits. […] Taxol-stabilized, rhodamine-labeled microtubules were adsorbed onto the surface of a microscope perfusion chamber, and then recombinant katanin subunits were introduced. The time elapsed after perfusing p60/p80 (0.1 μM), p60 (0.1 μM), or p80 (0.5 μM) is shown. The recombinant co-expressed p60/p80 and p60, but not p80, can sever and disassemble microtubules. Scale bar, 10 μm.
Microscope-based severing assays were performed using previously published procedures (McNally and Vale (1993) Cell, 75: 419-429), except that microtubules were immobilized by first perfusing flow cells with a bacterially expressed kinesin mutant that binds strongly to microtubules but is unable to hydrolyze ATP (K560, G234A mutant; R. Vale and E. Taylor, unpublished results). Assays were performed in 20 mM Hepes (pH 7.5), 2 mM MgCl2, 1 mM ATP with an oxygen scavenger system consisting of glucose oxidase (220 μg/ml), catalase (36 μg/ml), glucose (22.5 mM), and 2-mercaptoethanol (71.5 mM). Images were captured using a cooled, slow-scan CCD (Photometerics) and processed using Adobe Photoshop.

[2] = ATPase assay (modified malachite green method); format: biochemical; settings: for microtubule concentration at peak stimulation of ATP turnover: non-hyperbolic, decreases at higher microtubule concentrations; for ATPase activity (in words): baculovirus-expressed subunit alone
Procedure: ATPase activity was measured by a modified malachite green method (Kodama et al. (1986) J. Biochem. 99: 1465-1472). ATPase reactions of 50-100 μl were carried out in a buffer previously used for measuring the ATPase activity of native katanin [20 mM K-HEPES pH 8.0, 25 mM potassium glutamate 2 mM MgCl2, 10% glycerol (v/v), 0.02% Triton X-100 (w/v), 1 mg/ml BSA] (McNally and Vale (1993) Cell, 75: 419-429), except that soybean trypsin inhibitor (SBTI) was replaced by BSA as a carrier protein because SBTI increased background phosphate contamination. An ATP regenerating system, consisting of 0.5-1.0 mM phosphoenol pyruvate and 2 units of pyruvate kinase, was included to minimize the inhibition by ADP observed previously for native katanin (McNally and Vale (1993) Cell, 75: 419-429). Microtubules were prepared from bovine brain tubulin (Hyman et al. (1990) Meth. Enzymol. 196: 303-319; and Williams and Lee (1982) Meth Enzymol. 85B: 376-385). After assembly, microtubules were sedimented (230,000×g; 10 min), resuspended in ATPase buffer lacking BSA, and the polymers were resuspended by repeated passage through a 27 gauge needle. Microtubule concentration was determined by measuring the absorbance at 275 nm in 6 M guanidine HCl by using a molecular mass of 110 kDa and an extinction coefficient of 1.03 ml mg^−1 cm^−1 (Hackney (1988) Proc. Natl. Acad Sci. USA, 85: 6314-6318). ATPase reactions were carried out at room temperature, and were initiated by addition of katanin.

[3] = tested on: DAPI-labeled microtubules; assay: DAPI fluorescence microtubule disassembly (severing) assay; format: biochemical, bovine; settings: 2 μM microtubules
Description: To better compare the microtubule severing activities of p60 and p60/p80, we developed a quantitative microtubule disassembly assay based upon a previous finding that DAPI fluorescence intensity is higher when this dye is bound to polymerized versus free tubulin (Heusele et al. (1987) Eur. J Biochem. 165: 613-620). […] This slower rate of microtubule disassembly is consistent with the previously described 2-fold decrease in ATPase activity of p60 compared with p60/p80.
ATPase activity was measured by a modified malachite green method (Kodama et al. (1986) J. Biochem. 99: 1465-1472). […] Microtubule concentration was determined by measuring the absorbance at 275 nm in 6 M guanidine HCl by using a molecular mass of 110 kDa and an extinction coefficient of 1.03 ml mg^−1 cm^−1 (Hackney (1988) Proc. Natl. Acad Sci. USA, 85: 6314-6318). […]
DAPI severing assays were performed using conditions where the change in fluorescence intensity was linear with the amount of tubulin polymer added (Heusele et al. (1987) Eur. J Biochem. 165: 613-620). […] The reaction volume was 80 μL, and fluorescence intensity was measured by exciting at 370 nm. and measuring the emission at 450 mn using a model 8100 fluorimeter (SLM Instruments) in photon counting mode.

Molecule	time until microtubules were completely disassembled [1]	microtubule severing (in words) [1]	ATP turnover rate ([2]; basal, without microtubules)	stimulation of ATPase activity by microtubules ([2]; maximal stimulation)	microtubule concentration at peak stimulation of ATP turnover [2]	rate of microtubule disassembly compared with p60/p80 ([3]; 0.2 μM protein)	ATPase activity (in words) [2]	maximal basal and microtubule-stimulated ATPase rates relative to p60/p80 heterodimer ([2]; compared with p60/p80)	change in DAPI fluorescence (in words) [3]	basal ATPase activity ([2]; basal)	maximal microtubule-stimulated ATPase rate ([2]; microtubule-stimulated)
B1	5 min	severed microtubules	0.3 ATP/sec/heterodimer	~10 fold	~2 μM tubulin						
B2	5 min	severed microtubules			~2 μM tubulin	half as active as p60/p80	displayed a microtubule-stimulated ATPase activity	2 fold lower			
B3		unable to sever microtubules					no detectable ATPase activity		did not cause a change in fluorescence that was different from that shown for microtubules alone		
B4										0.3 ATP/katanin/sec	3 ATP/katanin/sec
